Columns and labels:
human recombinant renin = target: T1, human recombinant renin (Homo sapiens, UniProt P00797); assay: Renin inhibitory activity assay (fluorometric); format: biochemical; conditions: Table 1; peptide concentration not given
T1 construct: purchased Cayman Chemical; host or cells: HEK cells
T1 sequence (P00797 67-406): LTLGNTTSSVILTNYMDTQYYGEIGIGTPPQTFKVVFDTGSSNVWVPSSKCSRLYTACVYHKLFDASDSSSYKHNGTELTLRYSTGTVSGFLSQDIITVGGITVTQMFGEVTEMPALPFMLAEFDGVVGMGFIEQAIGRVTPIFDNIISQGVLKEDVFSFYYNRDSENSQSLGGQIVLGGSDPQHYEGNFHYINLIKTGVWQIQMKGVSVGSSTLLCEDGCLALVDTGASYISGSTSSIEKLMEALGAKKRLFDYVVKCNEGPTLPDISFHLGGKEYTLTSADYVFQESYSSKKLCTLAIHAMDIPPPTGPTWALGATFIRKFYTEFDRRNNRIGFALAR
Procedure: Renin inhibitory activity assays were carried out on a Shimadzu RF 1501 spectrofluorometer equipped with thermostated cell holder according to the method of Wang, Chung, Holzman, & Krafft (1993) with some modifications (FIG. 5 and Table 1). The following instrumental parameters were used: excitation wavelength, 340 nm; emission wavelength, 490 nm; excitation and emission bandwidth, 10 nm. A standard 2 mL, 1 cm pathlength cuvettes containing 1 mL of buffer (or 1 mL varied peptide concentrations) and 1 mL of 2.5 μM substrate, was equilibrated at 37° C. for 5 min to gain thermal equilibrium. A 15 μL of renin (0.4 μg renin) was then added to the cuvette to initiate the reaction. The time dependent increase of fluorescence intensity was monitored for 5 min. The initial reaction velocity, expressed in arbitrary fluorescence units per minute (FU/min), was calculated by least-squares analysis of the initial phase of the reaction. The renin inhibiting activity of the peptide fractions and the individual peptides within are described in Table 1.
Renin inhibiting assay was modified from the fluorometric assay developed for renin activity measurement (FIG. 5). […] The Michaelis-Menten constant (Km) in our study is 3.8 μM for human recombinant renin in the absence of peptide fractions. This value is close to the reported KM of 3.6 μM using the same source of renin and substrate under similar assay conditions (Holzman et al 1991). However, Km of human recombinant renin was also reported to be 1.62 μM (Toshihisa et al., 1992), or 1.25 μM in purified human renal renin acting on pure human plasma angiotensingen at pH 5.7 (Cumin et al., 1987), 1.54 μM at pH 6.5 (Slater and Strout 1981). The Km value for the reaction between renin and substrate also depends on pH, ionic strength, the medium and the assay procedure used (Poulsen et al., 1976). The Michaelis-Menten constants were increased to 6.3 and 6.1 μM, respectively in the presence of peptide fractions of T4 and T5, indicating decreased binding ability between renin and substrate because of the presence of competitive peptide inhibitors.

[1] = test system: spontaneously hypertensive rats (SHR); assay: Spontaneously hypertensive rats, oral gavage, systolic blood pressure by tail-cuff; format: in vivo, rat; conditions: for change in systolic blood pressure (ΔSBP): 24 hour after oral gavage, 30 mg/kg BW; for hypotensive activities, duration of effect: over a 24 hr period, oral 30 mg/kg BW, FIG. 16
Procedure: Animal experiments were carried out following the Canadian Council on Animal Care ethics guidelines with a protocol approved by the University of Manitoba Animal Protocol and Management Review Committee. The spontaneously hypertensive rats (SHR) were kept in the Animal Housing Facility at the Richardson Centre for Functional Foods and Nutraceuticals, University of Manitoba under a 12-hr day and night cycle at 21° C. and were fed a regular chow diet and tap water, ad libitum. The SHR were divided into […] that received the following treatments (dissolved in phosphate buffered saline, pH 7.2): ADMFPF (SEQ ID NO. 23) peptide (n=6), WMP (SEQ ID NO. 15) peptide (n=6), captopril (positive control, n=6), saline (negative control, n=6). The peptides (each at 30 mg/kg body weight, BW) and captopril (3 mg/kg BW) were administered to the SHR by oral gavage followed by measurement of systolic blood pressure (SBP) at 2, 4, 6, 8 and 24 hr by the tail-cuff method in slightly anesthesized rats. Prior to sample administration, the baseline (time zero) SBP was determined. In order to mitigate the blood pressure (BP) depression effect of isofluorane, the gas flow was optimized such that rats became conscious usually within 3-4 min after removal from the chamber, which provided enough time to perform the blood pressure measurement. Rats were first anesthesized in a chamber (maintained at about 40° C.) with 4% isofluorane for 4 min. They were then removed from the isofluorane chamber and tail-cuff measurement of blood pressure performed in the […]. The change in SBP (ΔSBP, mmHg) was determined by subtracting the data for the different time points from their respective baseline data.

WMP (listed as Pisum sativum) [SEQ ID NO. 15]
RENIN INHIBITION % (human recombinant renin): 43.37% | change in systolic blood pressure (ΔSBP) [1]: −14 mmHg | hypotensive activities, duration of effect [1]: comparable to captopril | hypotensive effects compared with ADMFPF ([1]; up to 8 hours after oral administration): initial higher hypotensive effects

SEQ ID NO. 17: peptide identified within the bioactive fractions of yellow pea protein hydrolysate (RSPD; listed as Pisum sativum)
RENIN INHIBITION % (human recombinant renin): 57.53%

SEQ ID NO. 19: peptide identified within the bioactive fractions of yellow pea protein hydrolysate (YPRE; listed as Pisum sativum)
RENIN INHIBITION % (human recombinant renin): 22.19%

SEQ ID NO. 14: peptide identified within the bioactive fractions of yellow pea protein hydrolysate (RAAP; listed as Pisum sativum)
RENIN INHIBITION % (human recombinant renin): 15.39%

SEQ ID NO. 18: peptide identified within the bioactive fractions of yellow pea protein hydrolysate (WPHT; listed as Pisum sativum)
RENIN INHIBITION % (human recombinant renin): 9.30%

ADMFPF (listed as Pisum sativum) [SEQ ID NO. 23]
change in systolic blood pressure (ΔSBP) [1]: −25 mmHg | hypotensive activities, duration of effect [1]: comparable to captopril

SEQ ID NO. 13: peptide identified within the bioactive fractions of yellow pea protein hydrolysate (WLP; listed as Pisum sativum)
RENIN INHIBITION % (human recombinant renin): 4.85%

C[C@H](CS)C(=O)N1CCC[C@H]1C(=O)O [Captopril, captopril, reference compound]
hypotensive effect compared to ADMFPF ([1]; after 24 hour, captopril 3 mg/kg BW oral): less effective

Source: US8815806B2, “Yellow pea seed protein-derived peptides” (University of Manitoba, priority 2009, dated 2014)
